Test results published in PMC12135937.

Tests used:
[1] = molecular target: DIP-β isoform C (Drosophila melanogaster); assay: SPR; Biacore T100, CM4 chip; DIPs immobilised by amine coupling (700-900 RU), monomeric Dpr analytes in 3-fold dilution series (0.012 to 9, 27 or 81 µM); 25 °C; 10 mM Tris-HCl pH 7.2, 150 mM NaCl, 1 mM EDTA, 1 mg/mL BSA, 0.01% Tween-20; equilibrium responses fit to a 1:1 model
[2] = molecular target: DIP-β isoform G (Drosophila melanogaster); assay: as above
Chain of DIP-β isoform G (Drosophila melanogaster) (main, as listed by the source): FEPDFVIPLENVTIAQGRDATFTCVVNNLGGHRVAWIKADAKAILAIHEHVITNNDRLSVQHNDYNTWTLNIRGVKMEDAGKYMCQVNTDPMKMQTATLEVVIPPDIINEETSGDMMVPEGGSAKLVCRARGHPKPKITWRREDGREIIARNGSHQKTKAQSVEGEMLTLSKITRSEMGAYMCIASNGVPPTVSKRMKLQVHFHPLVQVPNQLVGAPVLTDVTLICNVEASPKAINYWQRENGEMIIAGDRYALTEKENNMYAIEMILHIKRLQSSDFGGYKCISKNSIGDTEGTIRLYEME

Chain of DIP-β isoform C (Drosophila melanogaster) (main, as listed by the source): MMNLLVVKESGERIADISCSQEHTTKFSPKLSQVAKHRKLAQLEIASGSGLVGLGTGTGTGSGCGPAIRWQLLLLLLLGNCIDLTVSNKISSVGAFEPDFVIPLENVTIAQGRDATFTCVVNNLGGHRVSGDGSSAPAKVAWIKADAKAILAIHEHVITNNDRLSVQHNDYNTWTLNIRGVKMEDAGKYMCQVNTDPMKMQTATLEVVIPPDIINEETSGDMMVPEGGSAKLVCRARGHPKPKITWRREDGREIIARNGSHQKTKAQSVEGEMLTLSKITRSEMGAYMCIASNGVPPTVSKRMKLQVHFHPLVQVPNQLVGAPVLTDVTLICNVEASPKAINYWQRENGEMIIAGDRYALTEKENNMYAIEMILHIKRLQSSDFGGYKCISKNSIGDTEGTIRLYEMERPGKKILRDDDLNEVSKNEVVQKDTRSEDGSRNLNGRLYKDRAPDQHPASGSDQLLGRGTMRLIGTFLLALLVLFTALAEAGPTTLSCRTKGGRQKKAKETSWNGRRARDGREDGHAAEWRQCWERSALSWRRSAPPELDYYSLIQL

Row | Kd [1] | Kd [2] | Substance
1 | 1.32 µM | 0.789 µM | Dpr8 (natural protein)
2 | 5.97 µM | 3.41 µM | Dpr9 (natural protein)
3 | 106 µM | 180 µM | Dpr11 (natural protein)
4 | 180 µM | 60 µM | Dpr16 (natural protein)
5 | 176 µM | 58.7 µM | Dpr17 (natural protein)
